Target: T1, TRAIL R1-Fc fusion protein (UniProt O00220 24-239, limits assumed)
T1 construct: The construct is not described beyond its name; not shown: Fc portion
Experiment: immunoprecipitation with receptor-Fc from lysates of HA-TRAIL-s transfected 293T cells, Western blot

T1 sequence (O00220 24-239 limits assumed): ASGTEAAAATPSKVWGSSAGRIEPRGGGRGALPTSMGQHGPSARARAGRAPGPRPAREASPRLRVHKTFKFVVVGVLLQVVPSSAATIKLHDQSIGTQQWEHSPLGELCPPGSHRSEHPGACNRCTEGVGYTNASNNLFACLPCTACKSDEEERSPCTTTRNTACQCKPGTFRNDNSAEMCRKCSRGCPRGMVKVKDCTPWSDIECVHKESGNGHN

- binding result: no binding
B1: HA-tagged TRAIL-s (ligand)
chain: MAMMEVQGGPSLGQTCVLIVIFTVLLQSLCVAVTYVYFTNELKQMQDKYSKSGIACFLKEDDSYWDPNDEESMNSPCWQVKWQLRQLVRKTPRMKRLWAAK
notes: also called HA-TRAIL-s; not shown: HA tag of the HA-pcDNA3 vector
